Data published in patent US20190065668A1, “STRUCTURE OF […] IN COMPLEX WITH AN INHIBITOR AND USES THEREOF” (priority 2015, published 2019).
pKd: −log10 of the molar value.

How the values were obtained:
[1] = target: recombinant P. vivax plasmepsin V (residues R35-R476), N-terminal fusion tag removed with TEV protease (Plasmodium vivax) (UniProt A5K302); test: cell-based or functional assay
[2] = target: recombinant P. vivax plasmepsin V (residues R35-R476), N-terminal fusion tag removed with TEV protease (Plasmodium vivax) (UniProt A5K302); test: SPR, Biacore 4000, plasmepsin V amine-coupled on a CM5 chip, 1:1 fit
[3] = target: recombinant P. vivax plasmepsin V (residues R35-R476), N-terminal fusion tag removed with TEV protease (Plasmodium vivax) (UniProt A5K302); test: SPR, Biacore 4000, plasmepsin V amine-coupled on a CM5 chip, compound as analyte, 1:1 fit, 25 °C
[4] = target: recombinant P. vivax plasmepsin V (residues R35-R476), N-terminal fusion tag removed with TEV protease (Plasmodium vivax) (UniProt A5K302); test: SPR, Biacore 4000, plasmepsin V amine-coupled on a CM5 chip
[5] = target: recombinant P. falciparum plasmepsin V (residues N80-R528) (Plasmodium falciparum) (UniProt Q8I6Z5); test: cell-based or functional assay
recombinant P. falciparum plasmepsin V (residues N80-R528) (Plasmodium falciparum), sequence (Q8I6Z5 80-528): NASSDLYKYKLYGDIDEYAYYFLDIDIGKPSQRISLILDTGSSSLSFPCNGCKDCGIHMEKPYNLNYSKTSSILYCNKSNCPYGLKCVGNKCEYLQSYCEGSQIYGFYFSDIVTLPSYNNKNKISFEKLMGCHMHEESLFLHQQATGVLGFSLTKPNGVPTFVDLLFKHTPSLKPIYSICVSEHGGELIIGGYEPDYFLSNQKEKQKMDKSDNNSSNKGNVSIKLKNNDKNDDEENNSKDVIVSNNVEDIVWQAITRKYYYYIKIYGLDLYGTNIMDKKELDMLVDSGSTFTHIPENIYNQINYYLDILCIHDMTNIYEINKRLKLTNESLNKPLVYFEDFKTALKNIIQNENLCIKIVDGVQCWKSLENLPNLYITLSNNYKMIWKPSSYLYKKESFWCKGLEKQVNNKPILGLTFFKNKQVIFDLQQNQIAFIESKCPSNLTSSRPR

recombinant P. vivax plasmepsin V (residues R35-R476), N-terminal fusion tag removed with TEV protease (Plasmodium vivax), sequence (A5K302 35-476, tags or fused parts left off): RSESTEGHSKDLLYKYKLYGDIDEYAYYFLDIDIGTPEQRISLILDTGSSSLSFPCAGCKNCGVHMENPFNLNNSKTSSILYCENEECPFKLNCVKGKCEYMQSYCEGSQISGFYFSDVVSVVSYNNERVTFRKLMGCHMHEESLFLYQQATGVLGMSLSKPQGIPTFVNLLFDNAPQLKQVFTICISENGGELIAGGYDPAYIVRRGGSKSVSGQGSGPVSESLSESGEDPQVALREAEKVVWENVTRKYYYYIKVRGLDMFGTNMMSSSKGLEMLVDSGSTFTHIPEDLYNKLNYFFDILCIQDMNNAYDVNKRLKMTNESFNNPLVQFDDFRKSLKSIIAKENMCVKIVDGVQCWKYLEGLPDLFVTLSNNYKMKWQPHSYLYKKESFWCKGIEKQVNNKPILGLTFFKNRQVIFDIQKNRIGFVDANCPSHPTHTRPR

| Substance | IC50, inhibition of cleavage of the fluorogenic KAHRP PEXEL peptide [1] | koff [2] | pKd [3] | fold affinity against WEHI-916 [4] | IC50, inhibition of cleavage of the fluorogenic KAHRP PEXEL peptide [5] |
| --- | --- | --- | --- | --- | --- |
| WEHI-842, Cbz-Cav(NH2)-Val-Sta-NH(CH2)2Ph.TFA (peptide) | 1.6 nM | 0.00111 s⁻¹ | 7.87 | > 2 fold | – |
| WEHI-916 (peptide) | 8.2 nM | 0.00247 s⁻¹ | 7.38 | – | 12.9 nM |
